# Source: the RNAGym collection of RNA variant scans (doi:10.7554/elife.80360)
# B1: HDV Ribozyme (parent)
# chain: GGCCGGCAUGGUCCCAGCCUCCUCGCUGGCGCCGGCUGGGCAACAUUCCGAGGGGACCGUCCCCUCGGUAAUGGCGAAUGGGACCCA
# Variants of: B1
# Assay: self-cleavage, relative activity (ratio to wild type); higher = more cleavage; co-transcriptional
row,Variant,self-cleavage
1,U46C,0.815
2,U47A A56U,0.856
3,U47A A56C,0.782
4,U47A A70C,0.957
5,U47A A70G,0.831
6,U47A A70U,0.697
7,U47C C57U,0.712
8,U46C A77G,0.516
9,U46C A77C,0.375
10,U46C A77U,0.104
11,U46A C86G,0.831
12,U46A G76A,0.831
13,U46G U72C,0.287
14,U47C C63G,0.178
15,U46A C64G,0.38
16,U46A C64A,0.554
17,U46A C64U,0.649
18,U47C G82A,0.401
19,U47C G82U,0.111
20,U47C G82C,0.185
21,U47A G74A,0.688
22,U47A G74U,0.447
23,U46G A71G,0.772
24,U46G A71C,0.982

row,Variant,self-cleavage
1,U47G A71C,0.959
2,U47A C58U,1.03
3,U47A C58G,0.855
4,U47A C58A,0.957
5,U46G G80U,0.202
6,U46G G80C,0.185
7,U46C G76A,1.01
8,U46G G52C,0.429
9,U46C C66U,0.886
10,U47A G82C,0.489
11,U47G C63A,1.06
12,U47A G80U,0.172
13,U47A G80C,0.138
14,U47A A83U,0.287
15,U47A A83C,0.391
16,U46C G52U,1.05
17,U46A G53U,0.712
18,U46A U47G,0.369
19,U47G G53C,1.19
20,U47G G53A,1.15
21,U47A G59A,0.746
22,U46G G50U,0.458
23,U46G G50A,0.525
24,U47C U65C,0.733

row,Variant,self-cleavage
1,U47C U65G,0.856
2,U47G G55C,1.07
3,U47G G55A,0.939
4,U46G C84U,0.287
5,U46G C84G,0.185
6,U46A C75G,0.0594
7,U46C C84A,0.723
8,U46C C84G,0.237
9,U47G A56U,1.11
10,U47G A56G,1.08
11,U47G A56C,1.09
12,U46G C66U,0.673
13,U46G C62U,0.811
14,U47A C49G,1.42
15,U46G C57A,0.635
16,U46G C57U,0.86
17,U46C A71G,1.2
18,U46C A71C,0.772
19,U46C A71U,0.767
20,U46G G68C,0.396
21,U46G G68U,0.554
22,U46C C62U,0.918
23,U46C C62A,0.623
24,U46G G81C,0.175

row,Variant,self-cleavage
1,U46G G81A,0.222
2,U47C A77U,0.285
3,U46A U79A,0.504
4,U46A U79G,0.322
5,U46G U60G,0.415
6,U46G U60A,0.453
7,U47G C75G,0.317
8,U46A C66G,1.05
9,U46A G52C,0.759
10,U46G A51G,0.739
11,U46G A51C,0.755
12,U47G G68A,0.831
13,U47G G68C,0.499
14,U47G G68U,1.01
15,U46G G54C,0.453
16,U46G G54A,0.656
17,U46G G54U,0.443
18,U46G A70C,0.665
19,U46G A70U,0.997
20,U46G A70G,0.511
21,U47C C75G,0
22,U47C C75U,0.0791
23,U47G G82A,0.59
24,U47G G82U,0.123

row,Variant,self-cleavage
1,U46A G80C,0.0831
2,U47G G76C,0.727
3,U47G G76A,1.25
4,U46A G55A,0.716
5,U46G U69G,0.776
6,U46G U69A,0.665
7,U47C G67U,0.892
8,U47C G67C,0.59
9,U47G A87C,1.05
10,U47G A87G,1.16
11,U46C G80U,0.0903
12,U46C G80C,0.399
13,U47G G54U,1.07
14,U47G G54A,1.18
15,U46G A83C,0.293
16,U46G A83U,0
17,U46C U72C,0.684
18,U46C U72G,0.475
19,U46C U72A,0.504
20,U46G G67C,0.208
21,U46G A56C,0.959
22,U46G A78C,0.277
23,U47A C62A,1.01
24,U46C G55A,0.878

row,Variant,self-cleavage
1,U46C G55C,0.554
2,U47G C86U,1.11
3,U46A G82A,0.156
4,U46G G82U,0.229
5,U46G G82C,0.158
6,U46A G74C,0.297
7,U46A U72C,0.655
8,U46A U72A,0.615
9,U46A U72G,0.65
10,U47A C57A,1.02
11,U47C A51C,0.776
12,U47C A51U,0.831
13,U47A G50A,0.876
14,U46C U69C,1.12
15,U46C G73C,0.525
16,U46C U60A,0.674
17,U46C U60G,0.755
18,U47G C58A,1.48
19,U46A C85G,0.575
20,U46A C85A,0.7
21,U46G C75U,0.107
22,U47G U60C,0.767
23,U47G U60G,1.21
24,U46G C85U,0.831

row,Variant,self-cleavage
1,U46G C85A,0.831
2,U46C A51U,0.846
3,U46C A51G,0.639
4,U46C A51C,0.504
5,U46G G73U,0.514
6,U46C C58A,0.554
7,U47C A71C,0.883
8,U46C G68A,0.415
9,U47C G59A,0.954
10,U46A G73U,0.0811
11,U46C U65G,1.09
12,U46A G54C,0.706
13,U46A G67C,0.76
14,U47C U72C,0.712
15,U46G C86U,0.277
16,U46G C86A,0.684
17,U46A U69C,0.779
18,U47A U79G,0.895
19,U46G C58G,0.89
20,U46G U65A,0.582
21,U46G U65G,0.712
22,U47A C64G,0.978
23,U47A C64A,1.08
